Experiment: yeast display, Sf9 membrane polyspecificity reagent, FACS + sequencing; frameworks hold sequencing errors
In short: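 In a synthetic yeast display library (Saccharomyces cerevisiae BJ5465), nanobody expression was induced with galactose for 36–48 hours. FACS gates were set low and high (top ~1%) using anti-HA fluorescence for expression and streptavidin fluorescence for binding of the Sf9 membrane reagent. Each polyreactivity label is drawn from the gate of origin.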

Sequence	polyreactivity (PSR sort gate)
QVQLVESGGGLVQAGGSLRLSCAASGSTFDLYAMGWYRQATGKERELVAAISRSGGSTYYADSVKGRFTISRDNEKNTVYLQMNSLKPDDTAVYYCNARWPLGVSRGGMGYWGQGTQVTVSS	high polyreactivity
QVQLVESGGGLVQAGGSLRLSCAASGSTFDPNAKGWYRQEPGKERELVAAISKSGGRTYYADSVKGRFTISRDNAKNTVYLQMNSLKPEDTAVYYCNARFGSRYNFFGLRYNYWGLGTQVTVSS	high polyreactivity
QVQLVESGGGLVQAGGSLRLSCAASGSTFDPYAMGWYRQAPGIERELVAAITGRGGSTYYADSVKGRFTISRDNAKNTVYLQMNSLKPEDTAVYYCNAEGDKRRDRYDYWGQGSQVTVSS	low polyreactivity
QVQLVESGGGLVQAGGSLRLSCAASGSTFDRNAMGWYRQAPGKERELVASITWTGGSTYYADSVKGRFTISRDNAKNTVYLQMNSLKPEDTAVYYCNADLLYLDYLYGLDYWGQGTQVTVSS	high polyreactivity
QVQLVESGGGLVQAGGSLRLSCAASGSTFDRNVMGWYRQAPGKERELVAAISRVSSTNYADSVKGRFTISRDNAKNTVYLQMISLKPEDTAVYYCAVDNISNWAVENDYWGQGTQVTVSS	low polyreactivity
QVQLVESGGGLVQAGGSLRLSCAASGSTFDRYAMGWYRQAPGKERELVASISRSGGNTYYADSVKGRFTISRDNAKNTVYVPMNSLKPDDTAGYYSNKPIGRYSRNRYGYWGQATQVTVSS	high polyreactivity
QVQLVESGGGLVQAGGSLRLSCAASGSTFDRYGMGWYRQAPGKERELVAAISWSGGSTYYADSVKGRFTFSRDNAKNTVYLQMNSLKPEDTAVYYCNAVLYRFAYNYWGQGTQVTVSS	low polyreactivity
QVQLVESGGGLVQAGGSLRLSCAASGSTFDRYTMGWYRQAPGKERELVAAISESDGSTYYADSVKGRFTISRDNAKNTVYLLMNSLKPEDTAVYFCAAEWTHYWWYQYDFWGQGTQVTVSS	high polyreactivity
QVQLVESGGGLVQAGGSLRLSCAASGSTFDSNTMGWYRQAPGKERELVAAITVSGGSTHYADSVKGRFTNSRYNAKNTVYLQMNSLKPEDTAVYYCNRRSYGYGAFSGYDYWGQGTQVTVSS	low polyreactivity
QVQLVESGGGLVQAGGSLRLSCAASGSTFDSYAIGWYRQAPGKERELVAGISIVGSTNYADSVKGRFTISPDNAKNTVYLQLNSLKPEDTAVYYCNAGYFRGSNAIKVRLTYDHWGQGTQVTVSS	low polyreactivity
QVQLVESGGGLVQAGGSLRLSCAASGSTFDSYAMGWYRQAPGKERELVAAISRSGGRTYYADSVKGRFTISRDNAKNTVYLQMNSLKPEDTAVYYCAAPVKVGHSLSGGDYWGQGTQVTVSS	high polyreactivity
QVQLVESGGGLVQAGGSLRLSCAASGSTFDTYAMGWYRQAPGKERELVAAISRSGTSTYYADSVKGRFTISRDNAKNTVYLQMNSLKPEDTAVYFCNNPWYSYRYGGVGYGYWGQGTQVTVSS	low polyreactivity
QVQLVESGGGLVQAGGSLRLSCAASGSTFDYNAMGWYRQAPGKERELVAAISSGGRTYYADSVKGRFTISRDNAKNTVYLQMNSLKPEDTAVYYCAKARTLRYDSWGQGTQVTVSS	low polyreactivity
QVQLVESGGGLVQAGGSLRLSCAASGSTFDYYAMGWNRQAPGKERDLVAASTSGSSTYYADSVKGRITISRDNAQNTVYLEMNSLKPEDTAVYYCAARSVYGSSFLSYGYWGQGTQLTVSS	high polyreactivity
QVQLVESGGGLVQAGGSLRLSCAASGSTFDYYAMGWYRQAPGKERDLVAGITSDGSTDYADSVKGRFTISRDNAKNTVYLQMNSLKPEDTAVYYCAVDGDPVFYTTYYYSYYYWGQGTQVTVSS	low polyreactivity
QVQLVESGGGLVQAGGSLRLSCAASGSTFDYYAMGWYRQAPGKERELVAAIRWSSGRTYYADSVKGRFTISRDNAKNTVYLQMNSLKPEDTAVYYCAARARGRYKRVALDYWGQGTQVTVSS	high polyreactivity
QVQLVESGGGLVQAGGSLRLSCAASGSTFDYYAMGWYRQAPGKERELVAAISSTDGSTFYADSVKGRFTISRDNAKNTVYLQMNSLKPEDTAVYYCAVVGYYYPWPNGYDYWGQGTQVTVSS	low polyreactivity
QVQLVESGGGLVQAGGSLRLSCAASGSTFDYYTMGGYRQAPGKERELVAAISSSGGSTYYADSVKGRFTISRDNAKNNVYLQMISLKPEDTAVYYCAADASPYGDVYDYWGQGTQVTVSS	low polyreactivity
QVQLVESGGGLVQAGGSLRLSCAASGSTFDYYTMGWYRQAPGKERELVAAISSSGGSTYYADSVKGRFTISRDNAKNTVYLQMNSLKPEDTAVYYCAADPSPYGDEYDYWGQGTQVTVSS	low polyreactivity
QVQLVESGGGLVQAGGSLRLSCAASGSTFDYYTMGWYRQAPGKERELVAAITSGGSTNYADSVKGRFTISRDNAKNTVYLQMNSLKPEDTAVYYCAADEWYNNYNCTTYGPEYDSWGQGTQVTVSS	low polyreactivity
QVQLVESGGGLVQAGGSLRLSCAASGSTFEANAKGWYRQAPGKERELVAVITWTGGSTYYADSVKGRFTISRDYAKNTVYLQMNSLKPEDTAVYYCAAKFHRFAWYSHYDYWGQGTQVTVSS	low polyreactivity
QVQLVESGGGLVQAGGSLRLSCAASGSTFEAYAMGWYRQAPGKERELVAAIRSSGSTSYADSVKGRFTISRDNAKNTVYLQMNSLKPVDTAVYYCAARVRGYPRYKRDYWGQGTQVTVSS	high polyreactivity

Sequence	polyreactivity (PSR sort gate)
QVQLVESGGGLVQAGGSLRLSCAASGSTFEAYAMGWYRQAPGKERELVAAITWSSGSTYYADSVKGRFTISRDNAKNTVYLQMNSLKPEDTAVYYCNKDWLAYDSLRVPSTIAFDYWGQGTQVTVSS	low polyreactivity
QVQLVESGGGLVQAGGSLRLSCAASGSTFEDNAMGWYRQAPGKERELVAAITSGGNTYYADSVKGRFTISRDNAMNTVYLQMNSLKPDDTAVYYCNAVPFYYDFDYWGQGTQVTVSS	low polyreactivity
QVQLVESGGGLVQAGGSLRLSCAASGSTFEFNDMGRYRPAPGKERELVASIRHSDGSRYYADSVKGRFTISRDNAKNTVYLQMIILKPEDTAVYDCNKAFQWSGGQVSYDYWGQGTQVTVSS	low polyreactivity
QVQLVESGGGLVQAGGSLRLSCAASGSTFEGNAMGWYRQAPGKERELVAAITSGGSTNYADSVKGRFTISRDNAKNNVYLQMNSLKPEDTAVYYCAADTVSFSILYDYWGQGTQVTVSS	low polyreactivity
QVQLVESGGGLVQAGGSLRLSCAASGSTFELYAMGWYRQAPGKERDFVAAITYDSTYYADSVKGRFTISRDNAKNTVYLQMNSLKPEDTAVYYCAAAYWHYYYGWDMYYWGQGTQVTVST	high polyreactivity
QVQLVESGGGLVQAGGSLRLSCAASGSTFENYAMGWSRQAPGKERELVAAISWSGGSTYYADSVKGRFTISRDNAKNTVYLQMNSLKPEDTAVYYCNAELYLRWGVTVTFDYWGQGTQVTVSS	low polyreactivity
QVQLVESGGGLVQAGGSLRLSCAASGSTFEPYARGWYRQAPGKERELVAAISSSGSTNYADSVKGRFTISRDNAKNTVYLQMNSLKPEDTAVYYCNARRQRSPIEVCERGYWGQGTQVTVSS	high polyreactivity
QVQLVESGGGLVQAGGSLRLSCAASGSTFERYAMGWYRQAPGKKWSWLPYADSVKGRFTISRDNAKNTVYLQMNSLKPEDTAVYYCNAERDSPPLNLDRGWEYDYWGQGTQVTVSS	low polyreactivity
QVQLVESGGGLVQAGGSLRLSCAASGSTFESNAMGWYRQAPGKERELVAAISYIDTSTYYADSVKGRFTISRDNAKNTVYLQMNSLKPEDTAVYYCATDVDWAYGYQYEYWGQGTQVTVSS	low polyreactivity
QVQLVESGGGLVQAGGSLRLSCAASGSTFETYAMGWYRQAPGKEMELVAAISKTGARTYYADSVKGRFTISRDNAKNTVYLQMNSLKPEDTAVYYCAAERKAHRKPHSRVDKYYYWGQGTQVTVSS	high polyreactivity
QVQLVESGGGLVQAGGSLRLSCAASGSTFEVYTMGWYRQAPGKARELVADITWSGGNTYYADSVKGRYTISRDNAKNTVYLQMNSLKPEDTAVYYCAVDGGEFSSYGYWGQGTQVTVSS	low polyreactivity
QVQLVESGGGLVQAGGSLRLSCAASGSTFEYNAMGWYIQAPGKERELVASSTNYADSVKGRFTISRDNANNTVYLQMNSLKPEDTAVYYCAREQCVNRNHDYWGQGTQVTVSS	low polyreactivity
QVQLVESGGGLVQAGGSLRLSCAASGSTFEYNAMGWYRQAPGKERELVASSTNYADSVKGRFTISRDNAKNTVYLQMNSLKPEDTAVYYCARVQGVNRNHDYWGQGTQVTVSS	low polyreactivity
QVQLVESGGGLVQAGGSLRLSCAASGSTFEYYAMGWYRQAPGKERELVATITLIAGSTYADSVKGRFTISRDNAKNTVYLQMNSLKPEDTAVYYCAADDGGYESPEFVYGGRGDYWGQGTQVTVSS	low polyreactivity
QVQLVESGGGLVQAGGSLRLSCAASGSTFEYYGMGWYRQAPGKERELVATITSGGSTNYADSVKGRFTISRDNAKNTVYLQMNSLKPEDTAVYYCAVDISNSLGGGFGYDYWGQGTQVTVSS	low polyreactivity
QVQLVESGGGLVQAGGSLRLSCAASGSTFFDYAMGWYRQAPGKEREFVAAISRSGDTNYADSVKGRFTISRDNAKNTVYLQMNSLKPEDTAVYYCAKDWAYRRHWVGFYYWGQGTQVTVSS	low polyreactivity
QVQLVESGGGLVQAGGSLRLSCAASGSTFFFNAMGWYRQAPGKERELVAAITGRSGSTYYADSVKGRFTISRDNAKNTVYLQMNSLKPEDTAVYYCAADFSPWRSDFDYWGQGTQVTVTS	low polyreactivity
QVQLVESGGGLVQAGGSLRLSCAASGSTFFGNAMGWYRQAPGKERELVAAITSGGSTNYADSVKGRFTISRDNAKNTVYLQMNSLKPEDTAVYYCAKEYHYYYWGQGTQVTVSS	low polyreactivity
QVQLVESGGGLVQAGGSLRLSCAASGSTFFGYDMGWSRQAPGKERELVATINSGGSTYYADSVKGRFTISRDNAKNTVYLQMNSLKPADTAVYYCAARPSYLYPYDRTGEYDYWGQGTQVTVSS	high polyreactivity
QVQLVESGGGLVQAGGSLRLSCAASGSTFFGYTMGWYRQAPGKERELVAAITASDGSTYYADSVKGRFTISRDNAKNTVYLQMNSLKPEDTAVYYCNADYRLVRSFRLSSYTYIYDYWGQGTQVTVSS	low polyreactivity
QVQLVESGGGLVQAGGSLRLSCAASGSTFFHNAMGWYRQAPGKEREWVAAINWNGGSTYYADSVKGRFTISRDNAKNTVYLQMNSLKPEDTAVYYCAADIYTYLGAYYIGYYWGQGTQVTVSS	low polyreactivity

— the nanobody polyreactivity screen of Harvey et al. (2022)
